Results reported in patent US11028167 (CENTIVAX, dated 2021).

Key:
Assay in all cases: SPR, scFv captured by anti-V5, RBD analyte
[1] = biological target: SARS-CoV-2 Receptor Binding Domain (RBD) protein (SARS-CoV-2, UniProt P0DTC2 319-541)
[2] = biological target: SARS-CoV-1 Receptor Binding Domain (RBD) protein (SARS-CoV-1, UniProt P59594 306-527)
[3] = biological target: MERS Receptor Binding Domain (RBD) protein (Middle East Respiratory Syndrome (MERS) …, UniProt K9N5Q8 367-606)

B1: COVID19_P06_F05 (scFv, V domains shown)
VH: QVQLVQSGAEVKKPGASVKVSCKASGYTFASYDVNWVRQAPGQGLEWMGIINPRSGDANYAQKFQGRVTMTRDTSTSTVYMELSSLRSEDTAVYYCTRERHPQLLMPLDYWGQGTLVTVSS
VL: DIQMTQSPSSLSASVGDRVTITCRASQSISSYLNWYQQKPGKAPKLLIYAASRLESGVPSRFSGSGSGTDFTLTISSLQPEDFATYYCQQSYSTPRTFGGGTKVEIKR
[1]
  Kd: 0.9 nM
  koff: 5.7e-05 s⁻¹
  kon: 61900 M⁻¹ s⁻¹
[2]
  binding result: no binding (tested: 300 nM)
[3]
  binding result: no binding (tested: 300 nM)

B2: COVID19_R02_F08 (scFv, V domains shown)
VH: QVQLVQSGAEVKKPGASVKVSCKASGYTFGNYAINWVRQAPGQGLEWMGAIYPGNSDTTYNQKFQGRVTMTRDTSTSTVYMELSSLRSEDTAVYYCARDTVMGGMDVWGQGTLVTVSS
VL: DIQMTQSPSSLSASVGDRVTITCRASQEISGYLSWYQQKPGKAPKLLIYAASSLQSGVPSRFSGSGSGTDFTLTISSLQPEDFATYYCQQYVSYPWTFGGGTKVEIKR
[1]
  Kd: 9.1 nM
  koff: 0.00071 s⁻¹
  kon: 78000 M⁻¹ s⁻¹
[2]
  binding result: no binding (tested: 300 nM)
[3]
  binding result: no binding (tested: 300 nM)

B3: COVID19_P06_G02 (scFv, V domains shown)
VH: QVQLVQSGAEVKKPGASVKVSCKASGYTFTSHDINWVRQAPGQGLEWMGMINPSGGYTSYAQNFQGRVTMTRDTSTSTVYMELSSLRSEDTAVYYCTREGIPALLRTLDYWGQGTLVTVSS
VL: DIQMTQSPSSLSASVGDRVTITCRASQGIRNDLGWYQQKPGKAPKLLIYAASSLQSGVPSRFSGSGSGTDFTLTISSLQPEDFATYYCQQTYTTPYTFGGGTKVEIKR
[1]
  Kd: 6.92 nM
  koff: 0.0009 s⁻¹
  kon: 130000 M⁻¹ s⁻¹
[2]
  binding result: no binding (tested: 300 nM)
[3]
  binding result: no binding (tested: 300 nM)

B4: COVID19_P06_G11 (scFv, V domains shown)
VH: QVQLVQSGAEVKKPGASVKVSCKASGNTFTGYYMHWVRQAPGQGLEWMGAIYPGGSDTSYNQKFQGRVTMTRDTSTSTVYMELSSLRSEDTAVYYCTREGIPQLAWTLDYWGQGTLVTVSS
VL: DIQMTQSPSSLSASVGDRVTITCRASQSMSSYLNWYQQKPGKAPKLLIYAASSLQSGVPSRFSGSGSGTEFTLTISSLQPEDIATYYCQQFGSFGGGTKVEIKR
[1]
  Kd: 21.5 nM
  koff: 0.0014 s⁻¹
  kon: 65000 M⁻¹ s⁻¹
[2]
  binding result: no binding (tested: 300 nM)
[3]
  binding result: no binding (tested: 300 nM)

B5: COVID19_P06_G10 (scFv, V domains shown)
VH: QVQLVQSGAEVKKPGASVKVSCKASGYDFINYYIHWVRQAPGQGLEWMGIIDPSGGSTSYAQKFQGRVTMTRDTSTSTVYMELSSLRSEDTAVYYCTREGIPQLLRTLDYWGQGTLVTVSS
VL: DIQMTQSPSSLSASVGDRVTITCRASQDISDSLAWYQQKPGKAPKLLIYAASSLQSGVPSRFSGSGSGTDFTLTISSLQPEDFATYYCQQSYSRLAWTFGGGTKVEIKR
[1]
  Kd: 2.06 nM
  koff: 0.00068 s⁻¹
  kon: 330000 M⁻¹ s⁻¹
[2]
  binding result: no binding (tested: 300 nM)
[3]
  binding result: no binding (tested: 300 nM)

B6: COVID19_R02_D11 (scFv, V domains shown)
VH: QVQLVQSGAEVKKPGASVKVSCKASGYTFTENEMHWVRQAPGQGLEWMGIINPSAGSTSYAQKFQGRVTMTRDTSTSTVYMELSSLRSEDTAVYYCTREGIPQLLRTLDYWGQGTLVTVSS
VL: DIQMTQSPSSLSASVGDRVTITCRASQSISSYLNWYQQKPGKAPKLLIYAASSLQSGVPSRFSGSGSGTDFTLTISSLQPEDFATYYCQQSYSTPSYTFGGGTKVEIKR
[1]
  Kd: 4.9 nM
  koff: 0.00069 s⁻¹
  kon: 140000 M⁻¹ s⁻¹
[2]
  binding result: no binding (tested: 300 nM)
[3]
  binding result: no binding (tested: 300 nM)

B7: COVID19_R02_A12 (scFv, V domains shown)
VH: QVQLVQSGAEVKKPGASVKVSCKASGYTFTENEMHWVRQAPGQGLEWMGIINTSGGYTNYAQKFQGRVTMTRDTSTSTVYMELSSLRSEDTAVYYCTREGIPQLLRTLDYWGQGTLVTVSS
VL: DIQMTQSPSSLSASVGDRVTITCRASQSISSWLAWYQQKPGKAPKLLIYAASSLQSGVPSRFSGSGSGTDFTLTISSLQPEDFATYYCQQSYSNPYTFGGGTKVEIKR
[1]
  Kd: 46.3 nM
  koff: 0.0102 s⁻¹
  kon: 219000 M⁻¹ s⁻¹
[2]
  binding result: no binding (tested: 300 nM)
[3]
  binding result: no binding (tested: 300 nM)

B8: COVID19_R02_F04 (scFv, V domains shown)
VH: QVQLVQSGAEVKKPGASVKVSCKASGYRFTSYEVNWVRQAPGQGLEWMGIINPSGGSTSYAQKFQGRVTMTRDTSTSTVYMELSSLRSEDTAVYYCTREGIPQLLWALDYWGQGTLVTVSS
VL: not shown
[1]
  Kd: 6.4 nM
  koff: 0.00036 s⁻¹
  kon: 56000 M⁻¹ s⁻¹

B9: COVID19_R02_A05 (scFv, V domains shown)
VH: QVQLVQSGAEVKKPGASVKVSCKASGYTFTENEMHWVRQAPGQGLEWMGMINPSGGYTNYAQEFQGRVTMTRDTSTSTVYMELSSLRSEDTAVYYCTREGIPQLLRTLDYWGQGTLVTVSS
VL: DIQMTQSPSSLSASVGDRVTITCRASQSIYRWLAWYQQKPGKAPKLLIYAASSLQSGVPSRFSGSGSGTEFTLTISSLQPEDFATYYCQQSYGNPYTFGGGTKVEIKR
[2]
  binding result: no binding (tested: 300 nM)
[3]
  binding result: no binding (tested: 300 nM)

B10: COVID19_R02_F07 (scFv, V domains shown)
VH: QVQLVQSGAEVKKPGASVKVSCKASGYTFTENEMHWVRQAPGQGLEWMGIINTSGGYTNYAQKFQGRVTMTRDTSTSTVYMELSSLRSEDTAVYYCTREGIPQLLRTLDYWGQGTLVTVSS
VL: DIQMTQSPSSLSASVGDRVTITCRASQSISSWLAWYQQKPGKAPKLLIYAASSLQSGVPSRFSGSGSGTDFTLTISSLQPEDFATYYCQQSYSNPLHFGGGTKVEIKR
[2]
  binding result: no binding (tested: 300 nM)
[3]
  binding result: no binding (tested: 300 nM)

B11: COVID19_P06_G03 (scFv, V domains shown)
VH: QVQLVQSGAEVKKPGASVKVSCKASGYTFTENEMHWVRQAPGQGLEWMGVVNPSGGYTSYAQKFQGRVTMTRDTSTSTVYMELSSLRSEDTAVYYCTREGIPQLLRSQDYWGQGTLVTVSS
VL: not shown
[2]
  binding result: no binding (tested: 300 nM)
[3]
  binding result: no binding (tested: 300 nM)

B12: COVID19_P06_C02 (scFv, V domains shown)
VH: QVQLVQSGAEVKKPGASVKVSCKASGYTFTENEMHWVRQAPGQGLEWMGIINPSGGSTSYAQKFQGRVTMTRDTSTSTVYMELSSLRSEDTAVYYCTREGIPWWLRTLDYWGQGTLVTVSS
VL: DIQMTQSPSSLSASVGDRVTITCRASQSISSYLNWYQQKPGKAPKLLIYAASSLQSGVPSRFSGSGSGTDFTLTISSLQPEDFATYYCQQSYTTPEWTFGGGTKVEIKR
notes: also called COVID19_P06_CO2
[1]
  Kd: 6.15 nM
  koff: 0.000438 s⁻¹
  kon: 71200 M⁻¹ s⁻¹
[2]
  binding result: no binding (tested: 300 nM)
[3]
  binding result: no binding (tested: 300 nM)

B13: COVID19_R02_D03 (scFv, V domains shown)
VH: QVQLVQSGAEVKKPGASVKVSCKASGYTFTEYEMHWVRQAPGQGLEWMGIINPSGGYTNYAQKFQGRVTMTRDTSTSTVYMELSSLRSEDTAVYYCTREGIPQVLRTLDYWGQGTLVTVSS
VL: DIQMTQSPSSLSASVGDRVTITCRASQSISSWLAWYQQKPGKAPKLLIYAASSLQSGVPSRFSGSGSGTDFTLTISSLQPEDFATYYCQQSYSNPYTFGGGTKVEIKR
[2]
  binding result: no binding (tested: 300 nM)
[3]
  binding result: no binding (tested: 300 nM)

B14: COVID19_R02_B06 (scFv, V domains shown)
VH: QVQLVQSGAEVKKPGASVKVSCKASGYTFTENEMHWVRQAPGQGLEWMGVINPSGGYTSYAQKFQGRVTMTRDTSTSTVYMELSSLRSEDTAVYYCTREGIPQLLRHLDYWGQGTLVTVSS
VL: DIQMTQSPSSLSASVGDRVTITCRASQSISGYLSWYQQKPGKAPKLLIYAASSLQSGVPSRFSGSGSWTDFTLTISSLQPEDFATYYCQQSYSTPLTFGGGTKVEIKR
[2]
  binding result: no binding (tested: 300 nM)
[3]
  binding result: no binding (tested: 300 nM)

B15: COVID19_R02_A04 (scFv, V domains shown)
VH: QVQLVQSGAEVKKPGASVKVSCKASGYTFTENEMHWVRQAPGQGLEWMGIINPDGGSTSYAQKFQGRVTMTRDTSTSTVYMELSSLRSEDTAVYYCTREGIPQLLRTLDYWGQGTLVTVSS
VL: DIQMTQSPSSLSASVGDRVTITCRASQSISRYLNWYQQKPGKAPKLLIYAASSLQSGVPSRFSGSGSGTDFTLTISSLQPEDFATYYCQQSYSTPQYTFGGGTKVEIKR
[1]
  Kd: 12.7 nM
  koff: 0.00069 s⁻¹
  kon: 54400 M⁻¹ s⁻¹
[2]
  binding result: no binding (tested: 300 nM)
[3]
  binding result: no binding (tested: 300 nM)

B16: COVID19_R02_D07 (scFv, V domains shown)
VH: QVQLVQSGAEVKKPGASVKVSCKASGYTFTENEMHWVRQAPGQGLEWMGIINPSGGSTSYAQKFQGRVTMTRDTSTSTVYMELSSLRSEDTAVYYCTREGPPQLLRTLDYWGQGTLVTVSS
VL: DIQMTQSPSSLSASVGDRVTITCRASQSISSYLNWYQQKPGKAPKLLIYHTSNLETGVPSRFSGSGSGTDFTLTISSLQPEDFATYYCQQSYSFPATTFGGGTKVEIKR
[1]
  Kd: 6.3 nM
  koff: 0.00043 s⁻¹
  kon: 68000 M⁻¹ s⁻¹
[2]
  binding result: no binding (tested: 300 nM)
[3]
  binding result: no binding (tested: 300 nM)

B17: COVID19_R02_E11 (scFv, V domains shown)
VH: QVQLVQSGAEVKKPGASVKVSCKASGYTFTENEMHWVRQAPGQGLEWMGIINPSGGSTSYAQKFQGRVTMTRDTSTSTVYMELSSLRSEDTAVYYCTREGIPQLLRTLDYWGQGTLVTVSS
VL: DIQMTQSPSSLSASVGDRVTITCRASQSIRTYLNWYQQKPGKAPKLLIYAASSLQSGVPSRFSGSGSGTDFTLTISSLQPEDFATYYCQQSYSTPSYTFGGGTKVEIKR
notes: also called COVID19_C R02_E11
[1]
  Kd: 7.9 nM
  koff: 0.00079 s⁻¹
  kon: 100000 M⁻¹ s⁻¹
[2]
  binding result: no binding (tested: 300 nM)
[3]
  binding result: no binding (tested: 300 nM)

B18: COVID19_R02_C11 (scFv, V domains shown)
VH: QVQLVQSGAEVKKPGASVKVSCKASGYTFSDYYMHWVRQAPGQGLEWMGIIDPSGGSASYAQKFQGRVTMTRDTSTSTVYMELSSLRSEDTAVYYCTREGIPQLLRTLDYWGQGTLVTVSS
VL: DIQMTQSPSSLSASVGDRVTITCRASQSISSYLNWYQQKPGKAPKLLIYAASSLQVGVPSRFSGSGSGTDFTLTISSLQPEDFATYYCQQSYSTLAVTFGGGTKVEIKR
[1]
  Kd: 12.8 nM
  koff: 0.0011 s⁻¹
  kon: 86000 M⁻¹ s⁻¹
[2]
  binding result: no binding (tested: 300 nM)
[3]
  binding result: no binding (tested: 300 nM)

B19: COVID19_R02_F06 (scFv, V domains shown)
VH: QVQLVQSGAEVKKPGASVKVSCKASGYTFTENEMHWVRQAPGQGLEWMGIINPNGGGTYYAQKFQGRVTMTRDTSTSTVYMELSSLRSEDTAVYYCTREGIPQLLRTLDYWGQGTLVTVSS
VL: DIQMTQSPSSLSASVGDRVTITCRASQGIRNDLGWYQQKPGKAPKLLIYAASSLQSGVPSRFSGSGSGTDFTLTISSLQPEDFATYYCQQTYSAPYTFGGGTKVEIKR
[2]
  binding result: no binding (tested: 300 nM)
[3]
  binding result: no binding (tested: 300 nM)
